# Results reported in article PMC4022651, “Substitutional Analysis of the C-Terminal Domain of AbrB Revealed Its Essential Role in DNA-Binding Activity”.
# T1: AbrB wt (Bacillus subtilis 168, UniProt P08874 3-96)
# T1 sequence: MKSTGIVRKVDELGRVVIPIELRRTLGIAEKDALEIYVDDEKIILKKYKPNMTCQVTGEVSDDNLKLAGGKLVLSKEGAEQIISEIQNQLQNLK
# Columns and labels:
# AbrB Q91A (B. subtilis) [1] = experiment: SEC; analytical gel filtration (FPLC) on Superdex 75 5/150 GL; running buffer condition I: 50 mM HEPES pH 7.5, 300 mM NaCl, 2 mM β-mercaptoethanol, no glycerol; 100 µl protein applied; 0.2 ml/min; polymeric forms as % of the areas under the curve of all protein peaks
# AbrB Q91A (B. subtilis) [2] = experiment: SEC; analytical gel filtration (FPLC) on Superdex 75 5/150 GL; running buffer condition II: 50 mM HEPES pH 7.5, 300 mM NaCl, 2 mM β-mercaptoethanol with 10% glycerol; 60 µl (100 µg) protein applied; 0.2 ml/min; polymeric forms as % of the areas under the curve of all protein peaks
# AbrB wt [3] = target: T1, AbrB wt; experiment: EMSA; conditions: apparent KD', from plot against AbrB tetramer; 20 mM Tris-HCl pH 8, 100 mM KCl, 5 mM MgCl2, 1 mM DTT, 10% glycerol, 0.1 mg/ml poly(dI-dC), room temperature, 20 min; 1.14 nM phyC or 0.95 nM sinIR DNA
# [4] = tested on: AbrB R15A (Bacillus subtilis 168); experiment: EMSA; conditions: apparent KD', from plot against AbrB tetramer; 20 mM Tris-HCl pH 8, 100 mM KCl, 5 mM MgCl2, 1 mM DTT, 10% glycerol, 0.1 mg/ml poly(dI-dC), room temperature, 20 min; 1.14 nM phyC or 0.95 nM sinIR DNA
# AbrB wt [5] = target: T1, AbrB wt; experiment: EMSA; shift above 0.1 uM, no super shift; 20 mM Tris-HCl pH 8, 100 mM KCl, 5 mM MgCl2, 1 mM DTT, 10% glycerol, 0.1 mg/ml poly(dI-dC), room temperature, 20 min; 1.14 nM phyC or 0.95 nM sinIR DNA; conditions: protein: recombinant; tags: His6; chain copies: 4; label: 5'-32P; blunt
molecule,measurement,setting,value
AbrB Q91A (natural protein),% of the protein (AUC) in the form with n 4.7,AbrB Q91A (B. subtilis) [1],85%
same,% of the protein (AUC) in the form with n 8.2,AbrB Q91A (B. subtilis) [1],15%
same,% of the protein (AUC) in the form with n 4.1,AbrB Q91A (B. subtilis) [2],> 95%
same,stoichiometry N,AbrB Q91A (B. subtilis) [2],4.1
phyC promoter 440 bp,Kd,AbrB wt [3],660 nM
same,Kd,[4],3400 nM
sinIR P1 AbrB site 36 bp (dsDNA) DNA 1: GTGATTTAATGGCAAATGACTTCCAGAGACTAATGA DNA 2: TCATTAGTCTCTGGAAGTCATTTGCCATTAAATCAC,binding result,AbrB wt [5],binds
